Data from the RNAGym collection of RNA variant scans (doi:10.7554/elife.80360).

B1: Hairpin Ribozyme (parent)
chain: GUCCUCUUUCACGUGCGCGUGAAAGAGAGAAGUGAACCAGAGAAACACACGUUGUGGUAUAUUACCUGGUA

Variants of: B1
Assay: self-cleavage, relative activity (ratio to wild type); higher = more cleavage; co-transcriptional

Variant | self-cleavage
G15U G57U | 0.296
G15A G51C | 0.79
G15A G51U | 0.82
G15A G32A | 0.145
G15A G32U | 0.0825
C16G U53G | 0.713
G15U G69A | 0.448
G15U G69C | 0.434
G15A U63G | 0.0686
G15A U63C | 0.0715
G15A U63A | 0.116
C16A A44G | 0.153
C16G A47G | 0.187
G15U C37A | 0.386
G15U C37U | 0.784
G15U C37G | 0.339
C16U A26G | 0.959
C16G A35C | 0.659
C16G A35U | 0.693
C16A A23G | 0.783
C16G A45C | 0.152
C16G A45U | 0.229
C16U A71U | 0.859
C16G U60G | 0.511

Variant | self-cleavage
G15A G56U | 0.134
G15U A26U | 0.831
G15U A26C | 0.96
G15U U53A | 1.16
G15U U53C | 1.04
C16G C50A | 0.198
C16G C50U | 0.306
C16U A23G | 1
G15U C48G | 0.213
G15U C48A | 0.226
G15U C48U | 0.149
G15U G27C | 0.278
G15U G27A | 0.432
C16A A26U | 0.607
G15U G32C | 0.122
C16G A49G | 0.544
C16A G25A | 0.561
G15C G68C | 0.165
G15U A30U | 0.146
C16U C46A | 0.177
C16U C46G | 0.141
C16A C48G | 0.155
C16G G69C | 0.197
C16U G19A | 1.03

Variant | self-cleavage
C16U G25U | 0.873
G15C G19A | 0.913
C16G C65G | 0.163
C16A A36G | 1.1
C16A A36U | 0.554
G15U U70A | 0.96
C16G C38U | 0.167
G15U G51C | 1.08
G15U G51A | 0.948
G15U G51U | 1.22
C16G A59U | 0.145
G15A G42A | 0.15
C16G G21U | 0.442
G15U C46U | 0.187
C16U U58C | 1.1
C16U U58A | 0.731
G15U A64C | 0.16
G15U A64G | 0.657
G15A G25C | 0.491
C16U C65G | 0.26
C16U C65U | 0.443
G15U C16A | 1.11
G15C A45C | 0.18
C16U U70C | 0.949

Variant | self-cleavage
C16U U70A | 1.03
C16G C18U | 0.823
C16G C18G | 0.863
G15A C38G | 0.297
G15A C38A | 0.148
C16U A61G | 0.148
C16U C37A | 0.361
C16U C37U | 0.508
C16G G42U | 0.247
C16G G42A | 0.251
C16A A41C | 1.18
G15C U62C | 0.0966
G15U A47G | 0.116
C16U A39G | 0.326
G15C U53A | 0.792
C16U A43C | 0.174
C16U C66A | 0.194
C16U G34C | 1.53
C16A U70C | 0.978
C16A U70A | 0.83
G15C G42U | 0.19
C16U A47U | 0.0914
C16A C46U | 0.0901
G15C A36C | 0.678

Variant | self-cleavage
G15C A36G | 1.06
G15C G57C | 0.137
G15U G56U | 0.0866
G15U C65G | 0.244
C16U U33C | 0.27
C16U U33A | 0.0953
C16U G40U | 0.146
G15U G68A | 0.387
G15U G68U | 0.329
G15C G34C | 0.578
G15C G34A | 1.02
C16A U63C | 0.0962
G15U A39G | 0.245
G15A U20G | 0.85
C16G A22C | 0.604
C16G A22U | 0.691
C16U A28C | 0.565
G15C C37G | 0.298
G15U U63A | 0.164
C16A G57A | 0.129
C16U U60A | 1.01
C16A G19A | 0.991
G15U U33C | 0.178
G15C A23U | 1.02

Variant | self-cleavage
G15C A23C | 0.868
G15C U58G | 0.493
C16U G57C | 0.113
G15U C66G | 0.183
C16U G27U | 0.198
C16A G21U | 0.72
C16U G29A | 0.146
G15C U60A | 0.709
G15U U52C | 0.911
C16G U55A | 0.265
G15A G68U | 0.232
G15U A28U | 0.765
C16A G29C | 0.0987
C16A G29A | 0.144
C16A G29U | 0.128
C16A A43U | 0.0656
C16A U53C | 0.753
C16U U52A | 1.01
C16U U52C | 0.7
C16A C50G | 0.24
G15A U58G | 0.501
G15A U58A | 0.533
G15C G25A | 0.607
G15C G25U | 0.637

Variant | self-cleavage
G15A G69U | 0.217
G15A G69A | 0.362
C16A G51C | 0.714
C16A G51A | 0.943
G15C A35G | 1.08
G15C U63A | 0.188
G15U A43U | 0.104
G15U A43G | 0.151
G15C A39C | 0.463
G15C A39U | 0.402
C16U G32A | 0.216
C16G U58A | 0.488
C16G A43G | 0.0515
C16G A43C | 0.156
C16G A36U | 0.553
G15C C48A | 0.121
G15U C18G | 1.02
G15C A59C | 0.146
G15C A59U | 0.224
C16A G32A | 0.121
C16A G32C | 0.0596
C16A G32U | 0.226
G15A G17C | 0.83
